Common to all, as to assay type: biochemical
Series [1] is described as follows: Confirmation of β-galactoside-α2,6-sialyltransferase activity with pyridylaminated lactose, HPLC. Particulars: enzyme expressed by E. coli transformed with SHIZ119-N1C0/pTrc99A. Here is the method:
The linkage mode of sialic acid transferred to the sugar acceptor substrate can be determined by, but is not limited to, any procedure known to those skilled in the art, for example, a method using a pyridylaminated sugar chain or nuclear magnetic resonance spectroscopy (NMR) of the reaction product. The method using a pyridylaminated sugar chain involves an enzyme reaction using the pyridylaminated sugar chain as the sugar acceptor substrate. More specifically, an enzyme reaction is performed using pyridylaminated lactose (Galβ1-4Glc-PA, manufactured by Takara Bio Inc.) as a sugar acceptor substrate and CMP-NeuAc as a sugar donor substrate, and the reaction product is analyzed by high performance liquid chromatography (HPLC). From the retention time of the reaction product, the position at which sialic acid was transferred is determined.
Then, to determine the linkage mode of sialic acid, a reaction using PA-lactose as a substrate was performed. The enzyme reaction was performed using the resulting crude enzyme solution and a pyridylaminated sugar chain as the sugar acceptor substrate. As the pyridylaminated sugar chain, pyridylaminated lactose (Galβ1-4Glc-PA, manufactured by Takara Bio Inc.) was used. […] The analysis was performed under the following conditions: flow rate: 1 mL/min, column temperature: 40° C., detection: fluorescence (Ex: 320 nm, Em: 400 nm). […]

A short description of series [2]: Optimum pH and optimum temperature for neuraminidase activity. The settings on record: purified enzyme. How it is done: The optimum pH and the optimum temperature for neuraminidase activity of the recombinant β-galactoside-α2,6-sialyltransferase SHIZ119-N1C0 derived from the JT-SHIZ-119 strain were investigated using the purified enzyme prepared in Example 3.
The enzyme activity at various pH levels was measured at 35° C. with the buffer used in Example 4.
The neuraminidase activity was measured at every increment of 5° C. starting from 5° C. up to 50° C. using cacodylate buffer (pH 6.0).

Series [3] in a line: Optimum pH and optimum temperature for sialyltransferase enzyme activity. Particulars: purified enzyme. The text has this: The optimum pH and the optimum temperature of the recombinant β-galactoside-α2,6-sialyltransferase SHIZ119-N1C0 derived from the JT-SHIZ-119 strain were investigated using the purified enzyme prepared in Example 3.
Acetate buffer (pH 4.0 to 5.0), cacodylate buffer (pH 5.0 to 6.0), Bis-Tris buffer (pH 6.0 to 7.0), phosphate buffer (pH 7.0 to 8.0), TAPS buffer (pH 8.0 to 9.0), CHES buffer (pH 9.0 to 10.0), and CAPS buffer (pH 10.0 to 11.0) were each prepared and were used for enzyme activity measurement at 30° C. at various pH levels.
The enzyme activity was measured at every increment of 5° C. starting from 5° C. up to 50° C. using cacodylate buffer (pH 5.0).

B1: SHIZ119-N1C0 (protein)
chain: MCNDNQNTVDVVVSTVNDNVIENNTYQVKPIDTPTTFDSYSWIQTCGTPILKDDEKYSLSFDFVAPELDQDEKFCFEFTGDVDGKRYVTQTNLTVVAPTLEVYVDHASLPSLQQLMKIIQQKNEYSQNERFISWGRIGLTEDNAEKLNAHIYPLAGNNTSQELVDAVIDYADSKNRLNLELNTNTAHSFPNLAPILRIISSKSNILISNINLYDDGSAEYVNLYNWKDTEDKSVKLSDSFLVLKDYFNGISSEKPSGIYGRYNWHQLYNTSYYFLRKDYLTVEPQLHDLREYLGGSLKQMSWDGFSQLSKGDKELFLNIVGFDQEKLQQEYQQSELPNFVFTGTTTWAGGETKEYYAQQQVNVVNNAINETSPYYLGREHDLFFKGHPRGGIINDIILGSFNNMIDIPAKVSFEVLMMTGMLPDTVGGIASSLYFSIPAEKVSFIVFTSSDTITDREDALKSPLVQVMMTLGIVKEKDVLFWSDLPDCSSGVCIAQY
modifications: beta-galacoside-alpha-2,6-sialyltransferase from phorobacterium leiognathi (without signal peptide)
Turning to B1, the “reaction product with PA-lactose and CMP-NeuAc (linkage mode of transferred sialic acid)” value in series [1] is recorded as “PA-6′-sialyllactose (Neu5Acα2-6Galβ1-4Glc-PA) was detected”. For the same molecule, the “pH at which neuraminidase activity is the highest (optimum pH)” value in series [2] (35° C., FIG. 4-1) was 6.0. Further, the “temperature at which neuraminidase activity is the highest (optimum temperature)” value in series [2] (cacodylate buffer (pH 6.0), 5° C. up to 50° C., FIG. 4-2) came to 35 °C. In series [3] (30° C., pH 4.0 to 11.0, FIG. 2-1), the “pH at which sialyltransferase enzyme activity is the highest (optimum pH)” value was 5.0. In addition, in series [3] (cacodylate buffer (pH 5.0), 5° C. up to 50° C., FIG. 2-2), the “temperature at which sialyltransferase enzyme activity is the highest (optimum temperature)” value was 35 °C.

(Values after patent US20120184016A1, “NOVEL PROTEIN AND GENE THAT CODES THEREFOR” (priority 2009, published 2012).)
